Experiments:
[1] = system: PRC2; assay: PRC2 HKMT activity with Jarid2 fragments (aa 109–450), recombinant or native chromatin; assay type: biochemical; settings: native chromatin; equimolar amounts of Jarid2 fragments aa 109–450; n = 3
Excerpt: Figure 5 Jarid2 Methylation Regulates PRC2 Enzymatic Activity Depending on Chromatin Environment (A) HKMT assay performed with PRC2-Ezh2 on recombinant oligonucleosomes in the presence of peptides mimicking either Jarid2-K116me2 and me3 or H3K27me3. (B) HKMT assay as in (A) performed with PRC2-Ezh2 reconstituted with either Eed WT or F97A. (C) Table indicating the sequences of the peptides and the relative dissociation constant Kd (μM) for ΔEed binding measured by ITC. (D) Ribbons representation of ΔEed-Jarid2-K116me3 and ΔEed-H3K27me3 complexes. Eed is in gray; Jarid2 peptide is in yellow while H3 peptide is in purple, both in stick representation. Eed aromatic amino acids are in stick and cyan color. Top: top views. Bottom: zoom-in of side views. (E) HKMT assay as in (A) in presence of peptides Jarid2-K116me3 WT or F117A. (F) Left: representation of the chimeric proteins used in the HKMT assay. The red cross indicates the point mutations introduced in the protein to perform native chemical ligation. […] Right: quantification of PRC2-HKMT activity in the presence of the three Jarid2 fragments (mean ± SD, n = 3). […]
The N-terminal region of Jarid2 comprises distinct domains for both PRC2 and chromatin interactions ([Son et al., 2013]). […] We then monitored PRC2 enzymatic activity on recombinant or native nucleosomes either alone or in the presence of equimolar amounts of Jarid2 fragments (Figure 5F). […]

[2] = system: PRC2-Ezh2; assay: HKMT assay, PRC2-Ezh2 with Jarid2 fragments, titration of H3K27me3 octamers in recombinant chromatin; assay type: biochemical; settings: recombinant chromatin with increasing amount of H3K27me3 octamers
Excerpt: Figure 5 Jarid2 Methylation Regulates PRC2 Enzymatic Activity Depending on Chromatin Environment (A) HKMT assay performed with PRC2-Ezh2 on recombinant oligonucleosomes in the presence of peptides mimicking either Jarid2-K116me2 and me3 or H3K27me3. (B) HKMT assay as in (A) performed with PRC2-Ezh2 reconstituted with either Eed WT or F97A. (C) Table indicating the sequences of the peptides and the relative dissociation constant Kd (μM) for ΔEed binding measured by ITC. (D) Ribbons representation of ΔEed-Jarid2-K116me3 and ΔEed-H3K27me3 complexes. Eed is in gray; Jarid2 peptide is in yellow while H3 peptide is in purple, both in stick representation. Eed aromatic amino acids are in stick and cyan color. Top: top views. Bottom: zoom-in of side views. (E) HKMT assay as in (A) in presence of peptides Jarid2-K116me3 WT or F117A. (F) Left: representation of the chimeric proteins used in the HKMT assay. The red cross indicates the point mutations introduced in the protein to perform native chemical ligation. Red circle indicates K116me3. Right: quantification of PRC2-HKMT activity in the presence of the three Jarid2 fragments (mean ± SD, n = 3). […]
To evaluate a potential competition between H3K27me3 and Jarid2-K116me3, we reconstituted chromatin in presence of increasing ratios of octamers fully methylated on K27 and monitored PRC2 activity in presence of Jarid2 fragments (Figure 5G). […]

B1: fully methylated Jarid2 fragment: peptide containing aa 109–123 (K116me3) coupled through native chemical ligation with the aa 124–450 fragment (protein, UniProt Q92833 109-450, looked up, fragment)
chain: PRLQAQRKFAQSQPNSPSTTPVKIVEPLLPPPATQISDLSKRKPKTEDFLTFLCLRGSPALPNSMVYFGSSQDEEEVEEEDDETEDVKTATNNASSSCQSTPRKGKTHKHVHNGHVFNGSSRSTREKEPVQKHKSKEATPAKEKHSDHRADSRREQASANHPAAAPSTGSSAKGLAATHHHPPLHRSAQDLRKQVSKVNGVTRMSSLGAGVTSAKKMREVRPSPSKTVKYTATVTKGAVTYTKAKRELVKDTKPNHHKPSSAVNHTISGKTESSNAKTRKQVLSLGGASKSTGPAVNGLKVSGRLNPKSCTKEVGGRQLREGLQLREGLRNSKRRLEEAHQA
modifications: K116 trimethyl
notes: peptide containing aa 109–123 (K116me3) coupled through native chemical ligation with the aa 124–450 fragment
For B1, the “stimulation of PRC2 enzymatic activity relative to K116A or K116R fragments, result in words” value [1] was “this stimulation was lost” and the “effect of H3K27me3 titration on Jarid2-mediated stimulation of PRC2, result in words” value [2] was “no effect on the stimulation of PRC2 mediated by Jarid2”.

— publication PMC4352895, “Jarid2 Methylation via the PRC2 Complex Regulates H3K27me3 Deposition during Cell Differentiation” (Molecular Cell, 2015)
